B1: cr936 (nucleic acid)
guide: GTTTAAGAGCTAAGCTGGAAACAGCATAGCAAGTTTAAATAAGGCTAGTCCGTTATCAACTTGAAAAAGTGTCACCGAGTCGGTGAT
modifications: listed as DNA, chemistry not fully specified
B2: cr333 (nucleic acid)
guide: B1 guide with C60G, T61G, A68C, G69C, T72G, A86C
modifications: listed as DNA, chemistry not fully specified
B3: cr898 (nucleic acid)
guide: B1 guide with A32C, A65G, T72G, A86C
modifications: listed as DNA, chemistry not fully specified
B4: cr155 (nucleic acid)
guide: B1 guide with C60T, T62G, A67C, G69A, T72G, C75T, G83A, A86C
modifications: listed as DNA, chemistry not fully specified
B5: cr510 (nucleic acid)
guide: B1 guide with A59T, C60G, G69C, T70A, T72G, A86C
modifications: listed as DNA, chemistry not fully specified
B6: cr377 (nucleic acid)
guide: B1 guide with T56G, T72G, A86C
modifications: listed as DNA, chemistry not fully specified
B7: cr968 (nucleic acid)
guide: B1 guide with T72G, C73A, G85T, A86C
modifications: listed as DNA, chemistry not fully specified
B8: cr656 (nucleic acid)
guide: B1 guide with T72G, A74C, T84G, A86C
modifications: listed as DNA, chemistry not fully specified
B9: cr980 (nucleic acid)
guide: B1 guide with T53C, T72G, A86C
modifications: listed as DNA, chemistry not fully specified
B10: cr901 (nucleic acid)
guide: B1 guide with A66G, T72G, A86C
modifications: listed as DNA, chemistry not fully specified
B11: cr642 (nucleic acid)
guide: B1 guide with A32T, T72G, A86C
modifications: listed as DNA, chemistry not fully specified
B12: cr715 (nucleic acid)
guide: B1 guide with A31G, T72G, A86C
modifications: listed as DNA, chemistry not fully specified
B13: cr672 (nucleic acid)
guide: B1 guide with T72G, C75T, A86C
modifications: listed as DNA, chemistry not fully specified
B14: cr348 (nucleic acid)
guide: B1 guide with A21G, T72G, A86C
modifications: listed as DNA, chemistry not fully specified
B15: cr037 (nucleic acid)
guide: B1 guide with G7T, A8C, T72G, A86C
modifications: listed as DNA, chemistry not fully specified
B16: cr690 (nucleic acid)
guide: B1 guide with T27G, T72G, A86C
modifications: listed as DNA, chemistry not fully specified
B17: cr144 (nucleic acid)
guide: B1 guide with A59T, C60G, T62A, A67T, G69C, T70A, T72G, A86C
modifications: listed as DNA, chemistry not fully specified
B18: cr433 (nucleic acid)
guide: B1 guide with A66T, T72G, A86C
modifications: listed as DNA, chemistry not fully specified
B19: cr428 (nucleic acid)
guide: B1 guide with A64C, A66T, T72G, A86C
modifications: listed as DNA, chemistry not fully specified
B20: cr771 (nucleic acid)
guide: B1 guide with A65G, T72C, A86G
modifications: listed as DNA, chemistry not fully specified
B21: cr239 (nucleic acid)
guide: B1 guide with T53C, A64T, T72G, A86C
modifications: listed as DNA, chemistry not fully specified
B22: cr606 (nucleic acid)
guide: B1 guide with C60G, G69C, T72G, A74C, C75T, G83A, T84G, A86C
modifications: listed as DNA, chemistry not fully specified
B23: cr139 (nucleic acid)
guide: B1 guide with T72G, C75A, G83T, A86C
modifications: listed as DNA, chemistry not fully specified
B24: cr232 (nucleic acid)
guide: B1 guide with T27C, T72G, A86C
modifications: listed as DNA, chemistry not fully specified
B25: cr559 (nucleic acid)
guide: B1 guide with T72G, C73T, G85A, A86C
modifications: listed as DNA, chemistry not fully specified
B26: cr365 (nucleic acid)
guide: B1 guide with T54A, T72G, A86C
modifications: listed as DNA, chemistry not fully specified
B27: cr393 (nucleic acid)
guide: B1 guide with A65C, T72G, G79A, A86C
modifications: listed as DNA, chemistry not fully specified
B28: cr423 (nucleic acid)
guide: B1 guide with A59G, T70C, T72G, C73T, G85A, A86C
modifications: listed as DNA, chemistry not fully specified
B29: cr632 (nucleic acid)
guide: B1 guide with A64C, A66G, T72G, A86C
modifications: listed as DNA, chemistry not fully specified

Where a chain is given by its changes, count along the chain named.

The test system of the first data set is K562 CRISPRi cells. In words: Constant region variant library pooled growth screen, K562. The format is cell-based, human. The settings on record: sgRNA constant region variants; activity relative to the original, un-modified constant region cr995. The essentials: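 Library of sgRNA constant-region variants, each paired with 36 targeting sequences (essential-gene and non-targeting), transduced in duplicate into K562 CRISPRi cells, puromycin-selected and grown 4–8 days at >2000× coverage. Activity per variant is its growth phenotype normalised to the same targeting sequence with unmodified constant region.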
Regarding B1, the Mean relative activity came to 1.072.
As for B2, the Mean relative activity is given as 1.072.

Still in this data set, the particulars now being: sgRNA constant region variants; relative to the original, un-modified constant region cr995 (= 1).
Regarding B3, the Mean relative activity was determined as 1.014.
B4 had a Mean relative activity of 1.003.
The same measure, in the same setting: the value for B5 was 1.007.
Still for that read-out and setting: the value for B6 was 1.012; that for B7 was 1.004.
On the same count and under the same terms, the value for B8 was 1.004.
As for B9, the Mean relative activity amounted to 1.014.
The same measure, in the same setting: the value for B10 was 1.003; that for B11 was 1.008.
Take B12: the Mean relative activity is on record as 1.008.
The same measure, in the same setting: the value for B13 was 1.005; that for B14 was 1.008.
On the same count and under the same terms, the value for B15 was 1.01; that for B16 was 1.011; that for B17 was 1.007.
Turning to B18, the Mean relative activity turned out to be 1.012.
The same measure, in the same setting: the value for B19 was 1.013; that for B20 was 1.007; that for B21 was 1.014.
B22 had a Mean relative activity of 1.007.
The same measure, in the same setting: the value for B23 was 1.006; that for B24 was 1.006.
With B25, the Mean relative activity is listed as 1.007.
B26: the Mean relative activity was found to be 1.007.
Still for that read-out and setting: the value for B27 was 1.004.
Still for that read-out and setting: the value for B28 was 1.012; that for B29 was 1.008.

(Values after patent publication US20220259593A1, “CONTROL OF MAMMALIAN GENE DOSAGE USING CRISPR” (The Regents of the University of California, priority 2019, published 2022).)
